Measured values reported in patent publication US20120269821A1 (published 2012).

Legend:
[1] = biological target: TRO.11 envelope (HIV-1); test: cell-based or functional assay; design: unit not given beside the values
[2] = biological target: QH0692.42 envelope (HIV-1); test: cell-based or functional assay; design: unit not given beside the values
[3] = biological target: ZM197M.PB7 envelope (HIV-1); test: cell-based or functional assay; design: unit not given beside the values
[4] = biological target: Du422.1 envelope (HIV-1); test: cell-based or functional assay; design: unit not given beside the values
[5] = biological target: Du156.12 envelope (HIV-1); test: cell-based or functional assay; design: unit not given beside the values
[6] = biological target: CAP206.1.B5 envelope (HIV-1); test: cell-based or functional assay; design: unit not given beside the values
[7] = biological target: hepatitis E2 protein (Hepatitis C); test: antigen panel (luminex assay per paragraph 163); unit not given
[8] = biological target: HIV-1 gp41 (HIV-1); test: as above
[9] = biological target: T1, MOJO gp140 (HIV-1); test: as above
T1 construct: domain: gp140

[10] = biological target: QH0692.42 envelope (HIV-1); test: cell-based or functional assay
[11] = biological target: ZM197M.PB7 envelope (HIV-1); test: cell-based or functional assay
[12] = biological target: Du422.1 envelope (HIV-1); test: cell-based or functional assay
[13] = biological target: Du156.12 envelope (HIV-1); test: cell-based or functional assay
[14] = biological target: SC422661.8 envelope (HIV-1); test: cell-based or functional assay
[15] = biological target: CAP206.1.B5 envelope (HIV-1); test: cell-based or functional assay

B1: CAP206-CH12 (antibody, V domains shown)
VH: QVQLVQSGAEVKKPGSSVKLSCKASGGTFGSYSVTWVRQAPGQTFEWVGRIVPWVGVPNYAPKFQGRVTITADKSSTVYMELTSLRFEDTAVYYCATAYEASGLSYYYYMDDWGKGTTVTVSS
VL: EIVLTQSPGTLSLSPGERATLSCRASQSVTSSYLAWFRHKPGQAPRLLIYGASYRGTGIPDRISGSGSGTDFTLTISRLEPEDFAVYYCQHYGGSPGMYTFGQGTRLEIK
notes: also called mAb 2311; 2311
[1]
  IC50 in TZM-bl cells: 17.5
[2]
  IC50 in TZM-bl cells: > 32
[3]
  IC50 in TZM-bl cells: 13
[4]
  IC50 in TZM-bl cells: > 32
[5]
  IC50 in TZM-bl cells: 14.9
[6]
  IC50 in TZM-bl cells: 5.9
[7]
  reactivity: 855
[8]
  reactivity: 1980
[9]
  reactivity: 2910
[10]
  IC50 in TZM-bl/FcγRI cells: > 32000 µg/mL
[11]
  IC50 in TZM-bl/FcγRI cells: 300 µg/mL
[12]
  IC50 in TZM-bl/FcγRI cells: 2700 µg/mL
[13]
  IC50 in TZM-bl/FcγRI cells: 600 µg/mL
[14]
  IC50 in TZM-bl/FcγRI cells: 400 µg/mL
[15]
  IC50 in TZM-bl/FcγRI cells: 700 µg/mL
